The results in this text go back to patent US10500249B2, “Compositions and methods for preventing or treating diseases, conditions, or processes characterized by aberrant fibroblast proliferation and extracellular matrix deposition” (MOERAE MATRIX, INC., priority 2014, dated 2019).

What all share (experiment): Kinase Profiling Assay
Format in all cases: biochemical
Settings in all cases: 100 μM

In one test the target is T1, MINK (h) (Homo sapiens, UniProt Q8N4C8).
T1 construct: purchased Millipore
T1 sequence (Q8N4C8 whole entry): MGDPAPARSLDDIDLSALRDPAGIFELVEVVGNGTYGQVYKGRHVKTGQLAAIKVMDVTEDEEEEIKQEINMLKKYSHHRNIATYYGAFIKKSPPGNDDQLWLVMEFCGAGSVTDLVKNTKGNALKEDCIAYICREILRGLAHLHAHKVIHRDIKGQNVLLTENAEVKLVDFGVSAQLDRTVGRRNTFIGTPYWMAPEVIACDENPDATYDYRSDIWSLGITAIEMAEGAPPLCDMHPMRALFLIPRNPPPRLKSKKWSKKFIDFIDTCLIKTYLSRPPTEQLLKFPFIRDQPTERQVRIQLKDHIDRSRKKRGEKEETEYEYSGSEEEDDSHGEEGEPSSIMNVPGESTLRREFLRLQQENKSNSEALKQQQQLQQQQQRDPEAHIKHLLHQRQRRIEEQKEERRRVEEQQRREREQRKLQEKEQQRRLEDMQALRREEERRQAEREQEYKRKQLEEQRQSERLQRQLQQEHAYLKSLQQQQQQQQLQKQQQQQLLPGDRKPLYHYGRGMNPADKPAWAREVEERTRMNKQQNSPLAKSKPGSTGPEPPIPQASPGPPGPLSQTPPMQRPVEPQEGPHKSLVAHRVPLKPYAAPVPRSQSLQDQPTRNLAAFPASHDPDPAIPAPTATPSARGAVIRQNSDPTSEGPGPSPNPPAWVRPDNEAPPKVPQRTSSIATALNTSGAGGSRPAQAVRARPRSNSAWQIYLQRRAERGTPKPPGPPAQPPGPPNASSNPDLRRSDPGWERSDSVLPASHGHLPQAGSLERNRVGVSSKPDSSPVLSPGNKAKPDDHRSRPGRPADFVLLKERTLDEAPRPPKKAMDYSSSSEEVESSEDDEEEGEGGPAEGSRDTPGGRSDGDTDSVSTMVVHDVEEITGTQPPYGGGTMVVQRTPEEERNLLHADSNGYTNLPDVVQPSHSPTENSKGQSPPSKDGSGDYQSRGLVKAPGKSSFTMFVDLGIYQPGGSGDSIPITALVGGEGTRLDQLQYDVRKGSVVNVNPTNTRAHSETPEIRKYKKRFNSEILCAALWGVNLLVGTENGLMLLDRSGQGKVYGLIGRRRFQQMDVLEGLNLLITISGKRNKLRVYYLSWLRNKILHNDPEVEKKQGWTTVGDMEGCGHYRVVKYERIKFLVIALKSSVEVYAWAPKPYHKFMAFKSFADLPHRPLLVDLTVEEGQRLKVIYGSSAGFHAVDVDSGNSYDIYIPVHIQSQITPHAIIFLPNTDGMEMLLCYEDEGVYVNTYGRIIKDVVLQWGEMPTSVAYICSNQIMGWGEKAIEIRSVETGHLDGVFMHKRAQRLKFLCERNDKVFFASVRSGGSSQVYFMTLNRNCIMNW
The gist of the method:
(§1)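 Each kinase activity was measured in duplicate. Phosphorylation of a positively charged substrate with radiolabeled phosphate from ATP was captured on a negatively charged filter, counted by scintillation and expressed relative to a 100% activity control. MK2 inhibitory peptides were screened for specificity across 266 human kinases.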

For a further test, the target named is Abl(T315I) (h) (Homo sapiens, UniProt P00519, T315I). An outline of the steps: as §1
The target in a further test is SAPK2a(T106M) (h) (Homo sapiens, UniProt Q16539, T106M). The gist of the method: as §1
Sequence of SAPK2a(T106M) (h) (Q16539 whole entry T106M): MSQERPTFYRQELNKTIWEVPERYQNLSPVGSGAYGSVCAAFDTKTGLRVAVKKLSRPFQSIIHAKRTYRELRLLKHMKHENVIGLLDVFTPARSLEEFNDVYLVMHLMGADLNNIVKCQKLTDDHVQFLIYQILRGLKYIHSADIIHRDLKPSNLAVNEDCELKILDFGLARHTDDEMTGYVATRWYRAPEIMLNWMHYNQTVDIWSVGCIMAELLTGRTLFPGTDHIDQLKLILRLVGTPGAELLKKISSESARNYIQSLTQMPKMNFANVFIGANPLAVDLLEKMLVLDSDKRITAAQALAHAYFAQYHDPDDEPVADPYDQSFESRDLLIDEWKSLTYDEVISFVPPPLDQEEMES
In another test the target is T2, MuSK (h) (Homo sapiens, UniProt O15146).
T2 construct: purchased Millipore
T2 sequence (O15146 24-869): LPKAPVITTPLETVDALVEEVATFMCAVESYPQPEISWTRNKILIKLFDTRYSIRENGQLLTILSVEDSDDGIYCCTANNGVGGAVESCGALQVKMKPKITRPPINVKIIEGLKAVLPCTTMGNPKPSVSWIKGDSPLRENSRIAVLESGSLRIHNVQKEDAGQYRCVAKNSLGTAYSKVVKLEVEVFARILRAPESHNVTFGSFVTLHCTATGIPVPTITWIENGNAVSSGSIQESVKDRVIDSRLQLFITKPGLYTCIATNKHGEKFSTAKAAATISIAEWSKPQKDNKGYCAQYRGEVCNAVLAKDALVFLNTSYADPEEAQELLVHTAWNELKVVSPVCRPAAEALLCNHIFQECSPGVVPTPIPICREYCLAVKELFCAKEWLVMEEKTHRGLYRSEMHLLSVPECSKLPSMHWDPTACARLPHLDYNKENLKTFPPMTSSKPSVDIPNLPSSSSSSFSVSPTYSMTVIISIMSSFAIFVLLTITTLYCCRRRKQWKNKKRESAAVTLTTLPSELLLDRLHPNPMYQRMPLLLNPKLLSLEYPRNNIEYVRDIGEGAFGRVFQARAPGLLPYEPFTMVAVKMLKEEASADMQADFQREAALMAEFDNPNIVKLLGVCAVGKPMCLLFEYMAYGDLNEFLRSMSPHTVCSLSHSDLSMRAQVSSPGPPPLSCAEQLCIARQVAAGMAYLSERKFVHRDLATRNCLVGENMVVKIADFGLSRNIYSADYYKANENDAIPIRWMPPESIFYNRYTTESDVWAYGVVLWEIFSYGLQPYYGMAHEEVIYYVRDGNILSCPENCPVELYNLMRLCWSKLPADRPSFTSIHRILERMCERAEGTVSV
An outline of the steps: as §1

In a further test the target is T3, Mnk2 (h) (Homo sapiens, UniProt Q9HBH9).
T3 construct: purchased Millipore
T3 sequence (Q9HBH9 whole entry): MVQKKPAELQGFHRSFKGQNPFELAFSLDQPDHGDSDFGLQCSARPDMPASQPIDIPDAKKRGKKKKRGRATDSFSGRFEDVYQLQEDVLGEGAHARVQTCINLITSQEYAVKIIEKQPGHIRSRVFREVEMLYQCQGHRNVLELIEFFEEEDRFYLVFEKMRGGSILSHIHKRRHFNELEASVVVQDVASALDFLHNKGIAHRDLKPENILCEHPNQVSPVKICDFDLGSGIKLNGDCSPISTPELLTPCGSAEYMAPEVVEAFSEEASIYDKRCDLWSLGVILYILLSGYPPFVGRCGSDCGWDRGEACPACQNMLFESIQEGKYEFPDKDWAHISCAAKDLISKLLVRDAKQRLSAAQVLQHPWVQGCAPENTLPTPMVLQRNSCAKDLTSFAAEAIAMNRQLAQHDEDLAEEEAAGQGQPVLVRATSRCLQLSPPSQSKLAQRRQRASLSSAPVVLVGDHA
An outline of the steps:
as §1

The next test addresses T4, EphA8 (h) (Homo sapiens, UniProt P29322).
T4 sequence (P29322 28-1005): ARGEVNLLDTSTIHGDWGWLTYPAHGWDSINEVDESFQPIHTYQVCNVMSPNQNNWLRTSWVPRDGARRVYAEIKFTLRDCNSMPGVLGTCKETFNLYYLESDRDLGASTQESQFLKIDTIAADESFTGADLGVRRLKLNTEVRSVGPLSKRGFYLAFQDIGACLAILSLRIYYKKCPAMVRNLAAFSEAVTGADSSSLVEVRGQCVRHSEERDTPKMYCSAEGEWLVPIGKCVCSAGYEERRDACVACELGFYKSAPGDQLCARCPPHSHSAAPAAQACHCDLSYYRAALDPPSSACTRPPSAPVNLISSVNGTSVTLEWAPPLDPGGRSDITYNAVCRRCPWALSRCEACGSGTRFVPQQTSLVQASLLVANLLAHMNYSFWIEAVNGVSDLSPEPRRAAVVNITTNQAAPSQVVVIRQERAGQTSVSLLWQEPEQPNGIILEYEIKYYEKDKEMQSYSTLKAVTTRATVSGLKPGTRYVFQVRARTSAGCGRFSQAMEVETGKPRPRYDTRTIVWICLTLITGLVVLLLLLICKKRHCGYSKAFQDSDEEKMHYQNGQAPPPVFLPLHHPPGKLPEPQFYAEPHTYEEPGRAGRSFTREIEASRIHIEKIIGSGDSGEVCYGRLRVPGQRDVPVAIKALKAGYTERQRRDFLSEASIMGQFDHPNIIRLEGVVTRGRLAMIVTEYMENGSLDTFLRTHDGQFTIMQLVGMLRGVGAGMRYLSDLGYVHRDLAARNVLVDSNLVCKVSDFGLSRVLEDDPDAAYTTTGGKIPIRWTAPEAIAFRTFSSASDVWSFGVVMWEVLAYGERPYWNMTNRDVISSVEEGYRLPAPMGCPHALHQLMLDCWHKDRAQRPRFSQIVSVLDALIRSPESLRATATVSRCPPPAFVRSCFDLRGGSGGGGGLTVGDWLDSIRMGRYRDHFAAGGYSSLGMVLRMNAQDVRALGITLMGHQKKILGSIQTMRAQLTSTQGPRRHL
The gist of the method:
as §1

Another test concerns the target T5, EphA2 (h) (Homo sapiens, UniProt P29317).
T5 construct: purchased Millipore
An outline of the steps:
as §1

For a further test, the target named is T6, MST2 (h) (Homo sapiens, UniProt Q13188).
T6 construct: purchased Millipore
T6 sequence (Q13188 1-491): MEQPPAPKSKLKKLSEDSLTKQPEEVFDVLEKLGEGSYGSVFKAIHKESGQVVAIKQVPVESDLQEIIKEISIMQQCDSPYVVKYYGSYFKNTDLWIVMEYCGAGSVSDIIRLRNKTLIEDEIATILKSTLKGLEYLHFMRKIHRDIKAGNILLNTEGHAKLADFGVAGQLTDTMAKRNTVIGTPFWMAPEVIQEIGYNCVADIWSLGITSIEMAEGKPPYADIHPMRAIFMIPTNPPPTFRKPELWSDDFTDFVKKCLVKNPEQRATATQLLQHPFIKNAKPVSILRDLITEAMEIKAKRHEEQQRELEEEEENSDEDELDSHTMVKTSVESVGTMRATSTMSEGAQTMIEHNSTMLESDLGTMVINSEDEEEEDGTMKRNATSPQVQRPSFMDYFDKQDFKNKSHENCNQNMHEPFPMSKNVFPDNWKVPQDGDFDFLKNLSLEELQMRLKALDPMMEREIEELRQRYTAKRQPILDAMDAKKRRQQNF
The gist of the method:
as §1

In the case of FAKLAARLYRKALARQLGVAA [MMI-0300], the “% activity” value with MINK (h) is on record as 48%; in the test with Abl(T315I) (h) it was 97%; with SAPK2a(T106M) (h), 97%; with MuSK (h), 93%; with Mnk2 (h), 89%; with EphA8 (h), 93%. In addition, the “% activity” value was 31% with EphA2 (h) and 19% with MST2 (h).
Regarding “HRRIKAWLKKIKALARQLGVAA (Mammalian) [MMI-0500]”, the “% activity” value is on record as 5% with MINK (h); 16% with Abl(T315I) (h); 32% with SAPK2a(T106M) (h); 27% with MuSK (h); 6% with Mnk2 (h); 337% with EphA8 (h). The “% activity” value with MST2 (h) was 2%.
“YARAAARQARAKALNRQLGVA (Mammalian) [MMI-0200]”: the “% activity” value is given as 108% with Abl(T315I) (h), 100% with SAPK2a(T106M) (h), 133% in the test with EphA8 (h) and 95% with EphA2 (h).
In the case of KAFAKLAARLYRKALARQLGVAA [MMI-0400], the “% activity” value in the test with MINK (h) is recorded as 52%; with SAPK2a(T106M) (h) it was 99%; in the test with MuSK (h), 93%; with Mnk2 (h), 86%; in the test with EphA8 (h) it was 146%; with EphA2 (h), 17%. Besides, the “% activity” value with MST2 (h) was 11%.
